Drawing on article PMC8166773, this text covers Kd and koff for one substance.

This assay concerns the target influenza HA proteins mixture of A/California/7/09 (H1N1), A/Victoria/210/09 (H3N2), and B/Brisbane/. In words: SPR. As to conditions: natural protein.

Take Pseudomonas taiwanensis lectin (PTL): the Kd is 8.9 nM and the off-rate (koff) stood at 9.1e-06 s⁻¹.

A word on the Kd: it is the free concentration of one partner at which half of the binding sites on the other are occupied at equilibrium, for simple one-to-one binding. In general, koff refers to the rate constant with which the complex falls apart.
